Results taken from US20220251151A1.

Columns and labels:
Assay in all cases: cell-based or functional assay
[1] = target: T1, human Kv1.1 potassium channel (α-subunit) (human), Q09470
T1 chain: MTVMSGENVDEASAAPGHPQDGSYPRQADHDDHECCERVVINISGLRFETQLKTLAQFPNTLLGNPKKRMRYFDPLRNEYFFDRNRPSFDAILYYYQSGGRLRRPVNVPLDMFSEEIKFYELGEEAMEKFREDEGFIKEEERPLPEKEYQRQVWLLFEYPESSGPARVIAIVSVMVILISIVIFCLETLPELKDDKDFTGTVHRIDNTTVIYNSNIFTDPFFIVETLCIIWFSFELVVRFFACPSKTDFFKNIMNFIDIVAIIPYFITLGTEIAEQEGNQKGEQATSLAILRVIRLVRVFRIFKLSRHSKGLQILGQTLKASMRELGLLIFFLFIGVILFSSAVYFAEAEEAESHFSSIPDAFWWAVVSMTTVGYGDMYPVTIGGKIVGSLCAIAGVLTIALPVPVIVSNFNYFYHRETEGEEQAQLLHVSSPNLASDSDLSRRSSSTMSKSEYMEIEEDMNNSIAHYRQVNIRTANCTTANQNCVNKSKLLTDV

[2] = target: human Kv1.2 potassium channel (α-subunit) (human), P16389
[3] = target: human Kv1.3 potassium channel (potassium voltage-gated channel subfamily A member 3, α-subunit) (human), P22001
[4] = target: T2, human Kv1.6 potassium channel (α-subunit) (human), P17658
T2 chain: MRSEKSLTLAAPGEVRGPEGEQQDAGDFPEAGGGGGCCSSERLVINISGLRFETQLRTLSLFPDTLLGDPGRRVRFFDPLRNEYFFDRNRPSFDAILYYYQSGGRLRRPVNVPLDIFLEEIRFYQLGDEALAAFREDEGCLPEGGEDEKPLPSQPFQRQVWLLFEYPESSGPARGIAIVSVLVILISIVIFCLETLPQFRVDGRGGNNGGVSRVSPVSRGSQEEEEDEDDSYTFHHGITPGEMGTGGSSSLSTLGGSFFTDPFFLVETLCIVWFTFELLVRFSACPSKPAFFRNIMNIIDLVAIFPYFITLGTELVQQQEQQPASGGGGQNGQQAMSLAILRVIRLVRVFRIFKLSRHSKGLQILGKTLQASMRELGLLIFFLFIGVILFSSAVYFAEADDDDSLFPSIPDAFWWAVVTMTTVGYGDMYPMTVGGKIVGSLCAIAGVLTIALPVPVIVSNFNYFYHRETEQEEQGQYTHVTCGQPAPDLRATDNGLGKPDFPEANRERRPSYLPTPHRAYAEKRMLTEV

Chain of human Kv1.2 potassium channel (α-subunit) (human), P16389 (P16389 whole entry): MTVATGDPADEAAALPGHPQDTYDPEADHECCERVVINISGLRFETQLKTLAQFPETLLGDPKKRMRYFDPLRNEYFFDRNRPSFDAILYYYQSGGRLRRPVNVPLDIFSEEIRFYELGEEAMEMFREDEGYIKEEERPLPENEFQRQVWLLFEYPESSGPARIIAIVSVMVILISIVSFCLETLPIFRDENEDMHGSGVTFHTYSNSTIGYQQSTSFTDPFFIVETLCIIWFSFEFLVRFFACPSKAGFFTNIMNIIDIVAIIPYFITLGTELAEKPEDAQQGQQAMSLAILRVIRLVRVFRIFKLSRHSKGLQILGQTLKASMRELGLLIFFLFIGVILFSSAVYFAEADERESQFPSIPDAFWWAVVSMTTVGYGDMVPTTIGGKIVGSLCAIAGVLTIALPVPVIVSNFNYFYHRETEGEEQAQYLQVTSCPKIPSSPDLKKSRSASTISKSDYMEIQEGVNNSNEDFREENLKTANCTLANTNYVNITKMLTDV
Chain of human Kv1.3 potassium channel (potassium voltage-gated channel subfamily A member 3, α-subunit) (human), P22001 (P22001 whole entry): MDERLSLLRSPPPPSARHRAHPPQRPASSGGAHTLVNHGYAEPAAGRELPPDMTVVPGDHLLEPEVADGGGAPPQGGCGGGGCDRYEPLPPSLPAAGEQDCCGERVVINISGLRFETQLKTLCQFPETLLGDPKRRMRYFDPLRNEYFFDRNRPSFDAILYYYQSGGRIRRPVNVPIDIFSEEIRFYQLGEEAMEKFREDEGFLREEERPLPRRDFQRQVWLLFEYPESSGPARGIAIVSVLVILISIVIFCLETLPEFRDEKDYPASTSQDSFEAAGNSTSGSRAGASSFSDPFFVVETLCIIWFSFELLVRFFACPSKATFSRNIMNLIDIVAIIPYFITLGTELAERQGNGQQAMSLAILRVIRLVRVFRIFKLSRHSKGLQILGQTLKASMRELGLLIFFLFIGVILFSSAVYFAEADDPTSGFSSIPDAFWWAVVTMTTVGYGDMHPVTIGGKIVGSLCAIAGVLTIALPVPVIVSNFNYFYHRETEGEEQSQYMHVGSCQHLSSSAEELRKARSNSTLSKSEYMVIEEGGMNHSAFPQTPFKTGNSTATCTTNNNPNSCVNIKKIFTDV

B1: Compound 1 (PaT1) (peptide)
peptide: QMDMRCSASVECKQKCLKAIGSIFGKCMNKKCKCYPR
modifications: not checked
Potency IC50 (patch clamp) [1]: > 3000 nM
Selectivity Kv1.1/Kv1.3 [1]: > 7900
Potency IC50 (patch clamp) [2]: 518 nM
Selectivity Kv1.2/Kv1.3 [2]: 1360
Potency IC50 (patch clamp) [3]: 0.38 nM
anti-CD3 PBMC/IL-2 IC50 [3]: 0.09 nM
Potency IC50 (patch clamp) [4]: > 3000 nM
Selectivity Kv1.6/Kv1.3 [4]: > 7900
